Measured values as given in the supplement of paper PMC9170038.

System: MS2 coat protein
Test: apparent KD of MS2 coat protein; designed switch direction (-1 OFF switch, 1 ON switch): 1; higher = weaker reporter binding
Summary of the method: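 The reported apparent KD is a per-design median over clusters, from curve fits of normalised cluster fluorescence. Protein titrations used SNAP-549-labelled MS2 coat protein, doubled from 0.7 or 1.5 nM to 3 µM, in Tris-HCl pH 7.5 buffer with KCl, MgCl2, BSA, DTT, tRNA and Tween-20, with no input, 200 uM small-molecule ligand, or an oligonucleotide input. The RNA switches were transcribed on Illumina chips by stalled E. coli RNA polymerase.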

[1] = input ligand: microRNA oligo, concentration not stated
[2] = Eterna round: R95, input ligand: FMN 200 uM
[3] = Eterna round: R95, input ligand: microRNA oligo, concentration not stated
[4] = Eterna round: R95, input ligand: none

Row | Sequence | apparent KD of MS2 coat protein (input ligand: FMN 200 uM) [nM] | apparent KD of MS2 coat protein [1] [nM] | apparent KD of MS2 coat protein (input ligand: none) [nM] | apparent KD of MS2 coat protein [2] [nM] | apparent KD of MS2 coat protein [3] [nM] | apparent KD of MS2 coat protein [4] [nM]
1 | AAAAUGUGAUGUUACAUGAGGAUCACCCAUGUAGUGACAACUAAGGAUAUCUGAAAAAAAGGAGAGGAGAAGGUAGGAUCACAA [AK SSNG3-V2-16.1] (Eterna round: R96, puzzle: Same State NG 3) | 25.7 | 26.4 | 33.2 | – | – | –
2 | GUGCUCGUGUAAGGAUAUGCAGCCGUUUCGGCUGCAGAAGGUACUAUAAUACAUGAGGAUCACCCAUGUCUCUUUUGUUUGGUG [salish99_SSNG1_r04_907] (Eterna round: R96, puzzle: Same State NG 1) | 234 | 111 | 222 | – | – | –
3 | GGUCCAGCCUGAGCUGGACAAGAGCAUGUACAUGAGGAUCACCCAUGUCAUGUACAAGCUUUUUGCUCGUCUUAAAA [JL mod - D87 - 2] (puzzle: Sensor for hsa-mir-208a) | – | – | – | 433 | 14.5 | 540
4 | GGUAGGUUACUACCAACACAUGAGGAUCACCCAUGUUUUGGGAAGGAUAUGGUACCUAUUUGGUACCAGAAGGUCCAGUUAAUU [Fiskers NG3ss - 17] (Eterna round: R96, puzzle: Same State NG 3) | 47.4 | 66.6 | 69.5 | – | – | –
5 | GGUUUAGUCAGGUGCAGUUGCACCUGAAAACAUGAGGAUCACCCAUGUUUGGGACAAGCUUUGCUCCUCGUCUUGCA [Orinen] (puzzle: Sensor for hsa-mir-208a) | – | – | – | 341 | 70.6 | 545
6 | CCAGCUUCGGCAGGAUAUGGCGCGCCACUACGCCCAGAAGGGCCGGAAGAUACUACAACCACUACAUGAGGAUCACCCAUGUCA [Eternabot solution 1] (Eterna round: R96, puzzle: Same State NG 1) | 30.7 | 5.79 | 66.8 | – | – | –
7 | UAUGAAUUGCAAGGAUAUUGAUAACAUGAGGAUCACCCAUGUAAUUGAUCGAGUUAGAUCAGUUACAAGAAGGUGCUAUUGAUU [JR_SSNG2_Sub036] (Eterna round: R96, puzzle: Same State NG 2) | 534 | 24.5 | 90.7 | – | – | –
8 | UAAGUAUGUUGAGGAUAUUAUGUUUAGUGUGAUGACAUGAGGAUCACCCAUGUGUUAUGAGUUUUUAAGAAGGCAACAUACUUA [JR_SSNG2_Sub091] (Eterna round: R96, puzzle: Same State NG 2) | 35.1 | 41.7 | 55.2 | – | – | –
9 | AGCUAUCGCGUACGAUAGCUGAAGCAUGUACAUGAGGAUCACCCAUGUCAUGUACAAGCUUUUUGCUCGUCUUAUUG [JL-shm-2.26 JL mod] (puzzle: Sensor for hsa-mir-208a) | – | – | – | 341 | 14.2 | 347
10 | UUGUGUUUGCGAGGAUAUCGUUUGUUGAAGUUACGAGAAGGCGCUCUCAUUACAUGAGGAUCACCCAUGUCUUUGAUGCAUGAU [JR_SSNG1_Sub071] (Eterna round: R96, puzzle: Same State NG 1) | 54.7 | 44.5 | 68.2 | – | – | –
11 | UUAAUUAAUUAAUUAUACAUGAGGAUCACCCAUGUAAGUGAUCAGGAUAUCAGCUCGUUUAGAGCUGAGAAGGGAUACAUGAAU [SSNG3/12-A3] (Eterna round: R96, puzzle: Same State NG 3) | 91.6 | 85.9 | 143 | – | – | –
12 | GGAGCCAAGGCAGGAUAUUCAUUAUAAAUAACAUGAGGAUCACCCAUGUUGGCCAGAAGGCCAUGGGAGAAGGGCCAUGGCUCG [Xeonanis - 13 mod24] (Eterna round: R96, puzzle: Same State NG 2) | 17.7 | 73.7 | 105 | – | – | –
13 | AAAUUACUCCGAGGAUAUGCAUGGCUUUGUGCCGCAGAAGGUGGAUCGACGGACAUGAGGAUCACCCAUGUACACUGUCCUAUA [Gerite] (Eterna round: R96, puzzle: Same State NG 1) | 26.4 | 34.7 | 46.9 | – | – | –
14 | AGUCCUGAAAAGAAAAUAAUAAGUGAUGUACAUGAGGAUCACCCAUGUCAUGUACAAGUUCUAUGCUCGUCAUAUAA [Sensorship 24 - Jieux - Sensor for hsa-mir-208a] (puzzle: Sensor for hsa-mir-208a) | – | – | – | 106 | 32.2 | 98.1
15 | GGAAUCUCCAGAGAGGAUAUGCGGCGUUAAACAUGAGGAUCACCCAUGUCCUUCGAAUGGGUAACGCAGAAGGCUCUACGGUUCC [Shapeless] (puzzle: Same State 2) | – | – | – | 115 | 594 | 1220
16 | CGAAAGAGGUGAGGAUAUGCAGAGGAUCACCCUGUAGAAGGCAUCAGGUGAGGAUAUGCAGAGGAUCACCCUGUAGAAGGCAUC [pwkr ssNG DX.12] (Eterna round: R96, puzzle: Same State NG 1) | 151 | 336 | 596 | – | – | –

Row | Sequence | apparent KD of MS2 coat protein (input ligand: FMN 200 uM) [nM] | apparent KD of MS2 coat protein [1] [nM] | apparent KD of MS2 coat protein (input ligand: none) [nM] | apparent KD of MS2 coat protein [2] [nM] | apparent KD of MS2 coat protein [3] [nM] | apparent KD of MS2 coat protein [4] [nM]
17 | ACGUGGGUAUCACAGGAUAUACUCAUAACUACAUGAGGAUCACCCAUGUAGCGGUAUUCCGGUGCGUAGAAGGGUGAUGGACCAC [Same State 2 - Mod of Artece] (puzzle: Same State 2) | – | – | – | 13.3 | 11.6 | 19.9
18 | ACAUUUAGCUCGUGCACAUGAGGAUCACCCAUGUUCAGUUCACAGGAUAUCUAGUCAAACGGAUCGGAGAAGGGUGGCAGGAGC [Quceon] (Eterna round: R96, puzzle: Same State NG 3) | 39.9 | 121 | 123 | – | – | –
19 | UCGGGCUCUGCUCGUCUUGAGUUGCUCCCACAUGAGGAUCACCCAUGUAGUGUGCCUAUCAGCGCGCGGGUGACUUU [Riesonso] (puzzle: Sensor for hsa-mir-208a) | – | – | – | 328 | 133 | 350
20 | CGUCCAGCCUGAGCUGGACAAAAGCAUGUACAUGAGGAUCACCCAUGUUCAUGUACAAGCUUUUUGCUCGUCUUACA [salish99_208a_r3_091x] (puzzle: Sensor for hsa-mir-208a) | – | – | – | 691 | 16.2 | 695
21 | AGUCCAGCCUGAGCUGGACAAAAGCAUGUACAUGAGGAUCACCCAUGUUCAUGUACAGGCUUUUUGCUCGUCUUAAA [Zipper 52 - 7] (puzzle: Sensor for hsa-mir-208a) | – | – | – | 331 | 17.8 | 488
22 | CUGAGCGAUCUAGGAUAUCACGUCGAAUAGACGUGAGAAGGAGAUCAUAACAUGAGGAUCACCCAUGUAUUACAUGAAGCUCAG [SSNG1/6-A1] (Eterna round: R96, puzzle: Same State NG 1) | 13.2 | 10.4 | 25.4 | – | – | –
23 | GUAGCAUACCGAGGAUAUUCAUAUUAUACAUGAGGAUCACCCAUGUUAGGCCGAUUACGGCCUUGGGAGAAGGCGGAAUGCUAC [Xeonanis - 20 Mod20] (Eterna round: R96, puzzle: Same State NG 2) | 21.8 | 53.3 | 75 | – | – | –
24 | CAGCGCUGUCGAGAGGAUAUGCGGUGAUGGACAUGAGGAUCACCCAUGUUAGCGACAGCAUUACGGUAGAAGGCUUCACAGCUGC [Soteed Omei mod 15] (puzzle: Same State 2) | – | – | – | 61 | 33.3 | 41.8
25 | AUUAUUUAUGCAGGAUAUGAUUAACAUGAGGAUCACCCAUGUGGUGUUGUGAGUAAGGAGAGUGAUCAGAAGGGCAUUUUUUUU [JMF's solution 22] (Eterna round: R96, puzzle: Same State NG 2) | 673 | 377 | 447 | – | – | –
26 | UGUUAGUAGUGAGGAUAUACAUACACCUUACAUGAGGAUCACCCAUGUUUUAAGAUUGAUAGAUAGUAGAAGGCACAUGAUGAU [JR_SSNG2_Sub042] (Eterna round: R96, puzzle: Same State NG 2) | – | 38.2 | – | – | – | –
27 | AGUCCAGCCUGAGCUGGACAAAAGCAUGUACAUGAGGAUCACCCAUGUCAUGUACAAGCUUUUUGCUCGUCUUGAUA [Zipper 49 - 8] (puzzle: Sensor for hsa-mir-208a) | – | – | – | 416 | 16.7 | 435
28 | GAGGGACAUGAGGAUCACCCAUGUGGAAAAUUUAAAGGAUAUUAGUGUGGGAAAGUAGGGUAAGAAGGUUGAUUGG [JR_SS1_Sub085] (puzzle: Same State 1) | – | – | – | 50.2 | 54.2 | 91.3
29 | UGGCUGGUGCUAGGAUAUGCAUGAGGCCUCCUCGUAGAAGGAGCGCGACAUGAGGAUCACCCAUGUAGCCGUCCGUAGACGGCU [salish99_SSNG1_r04_012] (Eterna round: R96, puzzle: Same State NG 1) | 165 | 100 | 193 | – | – | –
30 | UAUCCAUAGAUAGGAUAUUAGAGAACAUGAGGAUCACCCAUGUUUGGCUUGGUUUUAAGCCAAUCUAAGAAGGAUCUUGAUGAA [SameState NG2 #10] (Eterna round: R96, puzzle: Same State NG 2) | 22.1 | 66.5 | 72.1 | – | – | –
31 | GGUACAAAUACAGGAUAUGCUAUCCUUUGGGUAGCAGAAGGGUGGUAACAUGAGGAUCACCCAUGUGUGCCAGGGCGUGAGCCC [JL SSNG1 1.98] (Eterna round: R96, puzzle: Same State NG 1) | 387 | 206 | 657 | – | – | –
